Patent publication US6420524

Legend:
Test in all cases: cell_activity
[1] = test system: TnsA+TnsB+TnsC A225V TnsC A225V (Escherichia coli (Tn7)?)
[2] = test system: TnsA+TnsB+TnsC S401YΔ402 TnsC S401Y, Δ402 (Escherichia coli (Tn7)?); conditions: lambda hop; inhibited somewhat by TnsD
[3] = molecular target: TnsA+TnsB+TnsC+TnsD (Escherichia coli (Tn7)?) (UniProt P13988+P13989+P05846+A0A0H2XLP6); conditions: lambda hop
[4] = test system: TnsA+TnsB+TnsC+TnsE (Escherichia coli (Tn7)?); conditions: lambda hop
[5] = molecular target: TnsA+TnsB+TnsC (wild type) (Escherichia coli (Tn7)?) (UniProt P13988+P13989+P05846); conditions: mating-out assay
[6] = test system: TnsA+TnsB+TnsC+TnsD+TnsE (Escherichia coli (Tn7)?); conditions: mating-out assay; +/- 1.1e-4

Row | Substance | relative transposition activity (fold vs TnsABCwt+E) ([1]; lambda hop, stimulated 500-fold by TnsD+attTn7) | relative transposition activity (fold vs TnsABCwt+E) [2] | activity (KmR colonies/pfu) [3] | activity (KmR colonies/pfu) [4] | activity (transposition frequency) [5] | activity (transposition frequency) ([1]; mating-out assay, +/- 8.1e-6) | activity (transposition frequency) [6]
1 | E. coli chromosome target (miniTn7-KmR from lambda KK1) | 8 | 50 | 0.00018 | 2.2e-07 |  |  | 
2 | pOX-G conjugable target plasmid |  |  |  |  | < 1e-07 | 8.8e-06 | 0.00055
